# T1: mouse FGFR2b (mouse, UniProt P21803)
# T1 chain: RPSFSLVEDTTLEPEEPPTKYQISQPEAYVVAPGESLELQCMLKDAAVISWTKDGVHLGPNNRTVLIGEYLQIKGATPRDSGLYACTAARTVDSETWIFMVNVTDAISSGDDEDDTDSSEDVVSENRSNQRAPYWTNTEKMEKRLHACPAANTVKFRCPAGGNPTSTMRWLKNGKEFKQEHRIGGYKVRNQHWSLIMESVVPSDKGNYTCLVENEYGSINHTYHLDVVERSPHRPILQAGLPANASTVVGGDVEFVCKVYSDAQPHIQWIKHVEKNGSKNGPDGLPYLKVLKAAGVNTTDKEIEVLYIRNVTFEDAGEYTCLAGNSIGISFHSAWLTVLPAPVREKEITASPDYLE
# Experiments:
# [1] = biological target: human FGFR2b on KATO III cells (human, UniProt P21802); test: FACS
# human FGFR2b on KATO III cells, sequence (P21802 22-377): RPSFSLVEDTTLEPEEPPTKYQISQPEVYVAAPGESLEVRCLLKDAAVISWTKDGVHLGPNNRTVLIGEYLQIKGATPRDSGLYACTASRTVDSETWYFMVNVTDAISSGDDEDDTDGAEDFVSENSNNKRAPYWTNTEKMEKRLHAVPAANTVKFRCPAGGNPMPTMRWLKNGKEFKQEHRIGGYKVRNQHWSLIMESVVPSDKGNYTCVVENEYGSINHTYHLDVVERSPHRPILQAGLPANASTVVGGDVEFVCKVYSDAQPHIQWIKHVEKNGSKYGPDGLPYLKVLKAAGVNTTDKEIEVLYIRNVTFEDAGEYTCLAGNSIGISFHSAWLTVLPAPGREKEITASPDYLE
# [2] = biological target: T2, human FGFR2b extracellular domain (human, UniProt P21802); test: BLI
# T2 sequence (P21802 22-377): as above
# [3] = biological target: T2, human FGFR2b extracellular domain; test: ELISA
# mouse FGFR2b = biological target: T1, mouse FGFR2b; test: BLI
EC50 [1],Kd [2],EC50 [3],Kd (mouse FGFR2b),Binder
0.117 µg/mL,7.6 nM,0.0147 µg/mL,33.9 nM,"3B7 (antibody, V domains shown) VH: EVQLQQSGAELVKPGASVKMSCKASGYTFRYYNMHWVKRTPGQGLEWIGLIYPDNGDTSYNQKFKGKATLTADTSSSTAYMQLSSLTSEDSAVYYCARGGFDYWGQGTTLTVSS VL: DIQMTQSPASLSASVGETVTITCGASENIYGALNWYQRKQGKSPQLLIYGATNLADGMSSRFSGSGSGRQYSLKISSLHPDDVATYYCQNVLSTPYTFGGGTKLELK"
0.161 µg/mL,5.69 nM,0.0278 µg/mL,23.8 nM,"3H9 (antibody, V domains shown) VH: EIQLQQSGAELVKPGASVKMSCKASGYTFSFYNMHWVKRTPGQGLEWIGLIYPDNGDTSYNQKFKGKATLTADTSSSTAYMQLSSLTSEDSAVYYCARGGLDYWGQGTTLTVSS VL: DIVLTQSPASLSVSVGETVTITCRASENIYSNLAWYQQKQGKSPQLLVYAATNLADGVPSRFSGSGSGTQYSLKINSLQSEDFGSYYCQHFWGTPYTFGGGTKLELK"
0.149 µg/mL,6.25 nM,0.0276 µg/mL,41.9 nM,"3G10 (antibody, V domains shown) VH: EVQLQQSGPELVKPGASVKMSCKASGYTFATYNMHWVKQTTGQGLEWIGAIYPDNGDTFYNRKFKDKATLTADKSSTTAYMQLSSLTSEDSAVYYCARGDFAYWGQGTLVTVSA VL: DVLMTQSPASLSASVGETVTITCGASENIYGALNWYQRKQGKSPQLLIYGATNLADGMSSRFSGSGSGRQYSLKISSLHPDDVATYYCQNVLSTPYTFGGGTKLEMK"
0.236 µg/mL,4.45 nM,0.0235 µg/mL,36.5 nM,"3E2 (antibody, V domains shown) VH: EIQLQQSGAELVKPGASVKMSCKASGYTFSFYNMHWVKRTPGQGLEWIGLIYPDNGDTSYNQKFKGKATLTADTSSSTAYMQLSSLTSEDSAVYYCARGGLDYWGQGTSLTVSS VL: NIVMTQSQKFMSTSVGDRVSVTCKASQNVGTNVAWYQQKPGQSPKALIYSASYRYTGVPDRFTGSGSGTDFTFTISSVQAEDLAVYYCQQHYSTPYTFGGGTKLEIK"
0.0656 µg/mL,12.2 nM,0.00818 µg/mL,99.8 nM,"1A3 (antibody, V domains shown) VH: QVQLQQPGAELVKPGASVKMSCKASGYTFASYNLHWVKQTPGQGLEWIGLIYPENGDTSYNQKFKGKATLTADKSSSTAYIQLSSLTSEDSAVYFCARGGFDYWGQGTTLTVSQ VL: DIQMTQSPASLSASVGETVTITCGASENIYGALNWYQRKQGKSPQLLIYGATNLADGMSSRFSGSGSGRQYSLKISSLHPDDVATYYCQNVLSTPYTFGGGTKLEIK"
0.186 µg/mL,3.97 nM,0.0235 µg/mL,42.2 nM,"1G6 (antibody, V domains shown) VH: EIQLQQSGAELVKPGASVKMSCKASGYTFRYYNMHWVKRTPGQGLEWIGLIYPDNGDTSYNQKFKGKATLTADTSSSTAYMQLSSLTSEDSAVYYCARGGLDYWGQGTSLTVSS VL: NIVMTQSHKFMSTSVGDRVSITCKASQDVNTDVAWYQQKPGQSPKLLIYSASYRYTGVPTRFTGSGSGTDFTFTISGVQAEDLADYYCQQHYNTPYTFGGGTKLELK"
0.233 µg/mL,6.18 nM,0.0216 µg/mL,53.5 nM,"2B2 (antibody, V domains shown) VH: QLQLQQSGAELVKPGASVKMSCKASGYTFASYNLHWVKQTPGQGLEWIGLIYPENGDTSYNQKFKDKATLTADKSSTTAYIQLSSLASEDSAVYFCARGGFDYWGQGTTLTVSS VL: DIVMTQSQKFMSTSVGDRVSVTCKASQNVGTNVAWYQQKPGQSPKALIYSASYRYSGVPDRFTGSGSGTDYTLTISSVQAEDLALYYCQQHYSTPYTFGGGTKLELK"
